Test results published in PMC9565801 (Science Advances, 2022).

B1: ketosteroid isomerase (KSI) Y32F/Y57F from Pseudomonas putida (enzyme)
chain: MNLPTAQEVQGLMARYIELVDVGDIEAIVQMFADDATVEDPFGQPPIHGREQIAAFFRQGLGGGKVRACLTGPVRASHNGCGAMPFRVEMVWNGQPCALDVIDVMRFDEHGRIQTMQAYWSEVNLSVREPQ
B2: ketosteroid isomerase (KSI) Y57F from Pseudomonas putida (enzyme)
chain: MNLPTAQEVQGLMARYIELVDVGDIEAIVQMYADDATVEDPFGQPPIHGREQIAAFFRQGLGGGKVRACLTGPVRASHNGCGAMPFRVEMVWNGQPCALDVIDVMRFDEHGRIQTMQAYWSEVNLSVREPQ

Target: the molecule itself
Experiment: crystal structure

Row | Protein | stoichiometry N
1 | B1 | 2
2 | B2 | 2
